Test results: US20250282885A1 (VST BIO, published 2025)

B1: 20-H19-AB (antibody, mouse IgG1, kappa, V domains shown)
VH: EVQLVESGGGLVQPKGSLKLSCAASGFTFNIYAMHWVRQAPGKGLEWIARIGSKSSYYATYYADSVKDRFTISRDDSQSMLYLQTNNLKTEDTAMYYCVSGKGDWGQGTTLTVSS
VL: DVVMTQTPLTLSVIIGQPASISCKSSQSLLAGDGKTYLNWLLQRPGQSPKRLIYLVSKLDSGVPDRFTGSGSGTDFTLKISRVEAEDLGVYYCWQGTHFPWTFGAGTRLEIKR
notes: PentaMice hybridoma clone, made recombinantly in CHO cells; also called 20-H1-AB
B2: 8-G17-A (antibody, V domains shown)
VH: EVQLVESGGGLVKPGGSLKLSCEASGITFSNYVMSWVRQTPEKRLEWVATISDGGSYTYYPDNLKGRFTISRDNAKNNLYLQMSHLKSEDTAMYYCVRDRYDYDGRVYAMDYWGQGTSVTVSS
VL: DVVMTQTPLSLPVSLGDQASISCRSSQSLVHSNGNTYLHWYLQKPGQSPKLLIYKVSNRFSGVPDRFSGSGSGTDFTLKITRVEAEDLGVYFCSQSTHVPWTFGGGTKLEIKR
notes: PentaMice hybridoma clone, made recombinantly in CHO cells

Legend:
human Sdc2 [1] = target: T1, human Sdc2 (human, UniProt P34741 19-144, limits assumed); assay: Octet tandem binning; saturating Ab f10 19838-10-I12-A
T1 construct: Antigen of the Octet tandem binning, loaded on biosensors at 100 nM; also called huSdc2; hSdc2
Experimental: (§1) These studies were performed in a tandem binning assay format with human Sdc2, used as the antigen (concentration of 100 nM). Antigen loaded biosensors were dipped in a saturating solution of antibody (25 μg/ml) for 240 seconds followed by a competing antibody at 5 μg/ml for 180 seconds. […] Since saturation is not possible to achieve saturation with these clones, they are removed in as ligands, but retained in the analyte orientation in the analysis. A table summarizing the results of epitope binning of the 18 antibodies against huSdc2 is illustrated in FIG. 30. Data is normalized, where the raw binding signal from Competing Ab for a given Saturating Ab is divided by binding in the absence a […] (“buffer”). The threshold determining the matrix color is adjustable and dependent upon Ag-Ab binding. […] Table rows are based on similar looking binding profiles. Note that the coloration/cutoff is subjective, yellow color added to represent injections with ambiguous or very weak sandwiching signals. FIG. 31 illustrates a clustergram of the epitope binning studies, which was generated from the normalized binning data by importation into the statistical computing program R (The R Project for Statistical Computing: at r-project.org) and generation of a clustergram with the pvclust package.

human Sdc2 [2] = target: T1, human Sdc2; assay: Octet tandem binning; saturating Ab m7 19844-R3-P1-E07
Experimental: as §1

human Sdc2 [3] = target: T1, human Sdc2; assay: Octet tandem binning; saturating Ab m6 19838-20H19-AA (marked non-binding ligand)
Experimental: as §1

human Sdc2 [4] = target: T1, human Sdc2; assay: Octet tandem binning; saturating Ab m5 19844-R4M-P3-A12 (row boxed, self-self >0.09)
Experimental: as §1

human Sdc2 [5] = target: T1, human Sdc2; assay: Octet tandem binning; saturating Ab m8 19844-R4M-P1-B01 (marked non-binding ligand)
Experimental: as §1

pig Sdc2 [6] = target: T2, pig Sdc2 (pig, UniProt F1S0L5 19-145); assay: Octet BLI, HIS1K sensor loaded with pigSdc2, antibody as sample; Full R2 0.9988; heading box reads Pig Sdc2 (Kd~ low femtomolar)
T2 construct: also called pSdc2
Experimental: (§2) In order to characterize the binding affinity and in vivo/in vitro functional ability of the twelve clones generated by the previous studies and disclosed in Table 1, a series of assays were performed on each clone. These assays measured the affinity of each antibody clone for human, pig, and mouse Sdc2 using an Octet® binding assay system. Additionally, the functional ability of each clone to inhibit VEGFA-driven permeability (see Santiago, et al. (2021) J Am Heart Assoc. 10(18):e020521) was assessed in two therapeutic settings: a “prevention” study in which three concentrations of antibody (5 μg/ml, 10 μg/ml, 15 μg/ml, 20 μg/ml, and/or 40 μg/ml depending on the study) were pre-incubated for an hour before administration of 100 ng/ml of VEGFA, and a “treatment” study in which 3 hours of pre-treatment with 100 ng/ml VEGFA were followed by treatment with antibody at 20 μg/ml or 40 μg/ml. Results are shown for 8-G17 in FIG. 8 and FIG. 9, 20-H19-AB in FIG. 10 and FIG. 11 (FIG. 12 for monkey ECs), R3-P3-C11 in FIG. 13 and FIG. 14, R4M-P3-E06 in FIG. 15 and FIG. 16, R3-P3-E09 in FIG. 17 and FIG. 18, R3-P1-C02 in FIG. 19 and FIG. 20, R3-P3-A12 in FIG. 21 and FIG. 22, R4M-P3-A12 in FIG. 23 and FIG. 24, and R4M-P1-A10 in FIG. 25 and FIG. 26.

human Sdc2 [7] = target: T1, human Sdc2; assay: Octet tandem binning; saturating Ab f5 19844-R4M-P3-E06
Experimental: as §1

human Sdc2 [8] = target: T1, human Sdc2; assay: Octet tandem binning; saturating Ab m3 19844-R3-P1-C02 (row boxed, self-self >0.09)
Experimental: as §1

human Sdc2 [9] = target: T1, human Sdc2; assay: Octet tandem binning; saturating Ab f8 19844-R4M-P2-C02
Experimental: as §1

human Sdc2 [10] = target: T1, human Sdc2; assay: Octet tandem binning; saturating Ab f7 19844-R3-P3-A12
Experimental: as §1

human Sdc2 [11] = target: T1, human Sdc2; assay: Octet tandem binning; Buffer in place of a saturating Ab
Experimental: as §1

human Sdc2 [12] = target: T1, human Sdc2; assay: Octet BLI, heading box over the sensorgram
pig Sdc2 [13] = target: T2, pig Sdc2; assay: Octet BLI, HIS1K sensor loaded with pigSdc2, antibody as sample; Full R2 0.9988
Experimental: as §2

human Sdc2 [14] = target: T1, human Sdc2; assay: Octet tandem binning; saturating Ab f11 19838-20-H19-A
Experimental: as §1

human Sdc2 [15] = target: T1, human Sdc2; assay: Octet tandem binning; saturating Ab f6 19844-R3-P3-E09
Experimental: as §1

human Sdc2 [16] = target: T1, human Sdc2; assay: Octet tandem binning; saturating Ab m4 19844-R4M-P1-A10
Experimental: as §1

human Sdc2 [17] = target: T1, human Sdc2; assay: Octet tandem binning; saturating Ab f9 19838-6-E17-A
Experimental: as §1

human Sdc2 [18] = target: T1, human Sdc2; assay: Octet tandem binning; saturating Ab f12 19838-6-N03-A
Experimental: as §1

human Sdc2 [19] = target: T1, human Sdc2; assay: Octet tandem binning; saturating Ab m2 19838-8G17-A
Experimental: as §1

human Sdc2 [20] = target: T1, human Sdc2; assay: Octet BLI, HIS1K sensor loaded with huSdc2, antibody as sample; Full R2 0.998
[21] = target: human Sdc2 on Human Umbilical Vein Endothelial Cells (HUVEC) (human, UniProt P34741 19-201); assay: cell-based or functional assay
human Sdc2 [22] = target: T1, human Sdc2; assay: Kd (human Sdc2), summary table of the mAbs
human Sdc2 [23] = target: T1, human Sdc2; assay: Octet tandem binning; saturating Ab f3 19838-6N03-A
Experimental: as §1

human Sdc2 [24] = target: T1, human Sdc2; assay: Octet tandem binning; saturating Ab f4 19844-R3-P3-C11
Experimental: as §1

human Sdc2 [25] = target: T1, human Sdc2; assay: Octet BLI, HIS1K sensor loaded with huSdc2, antibody as sample; Full R2 0.9968
human Sdc2 [26] = target: T1, human Sdc2; assay: Octet BLI, heading box over the sensorgram; remark: listed apart in the source
Experimental: as §2

pig Sdc2 [27] = target: T2, pig Sdc2; assay: Octet BLI, heading box over the sensorgram
Experimental: as §2

pig Sdc2 [28] = target: T2, pig Sdc2; assay: Octet BLI, HIS1K sensor loaded with pigSdc2, antibody as sample; Full R2 0.997
human Sdc2 [29] = target: T1, human Sdc2; assay: Octet tandem binning; saturating Ab m1 19838-20H19-AB
Experimental: as §1

T1 sequence (P34741 19-144 limits assumed): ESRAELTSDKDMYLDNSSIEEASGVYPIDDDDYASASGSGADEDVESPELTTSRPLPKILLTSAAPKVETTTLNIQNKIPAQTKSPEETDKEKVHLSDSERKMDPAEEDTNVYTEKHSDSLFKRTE
Chain of human Sdc2 on Human Umbilical Vein Endothelial Cells (HUVEC) (P34741 19-201 limits assumed): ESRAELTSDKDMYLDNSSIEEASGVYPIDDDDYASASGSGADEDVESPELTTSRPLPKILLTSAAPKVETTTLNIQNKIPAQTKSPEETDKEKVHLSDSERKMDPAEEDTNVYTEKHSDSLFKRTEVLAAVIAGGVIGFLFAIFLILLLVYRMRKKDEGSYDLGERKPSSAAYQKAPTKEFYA

Binder	raw competing-Ab binding signal (human Sdc2 [1])	raw competing-Ab binding signal (human Sdc2 [2])	raw competing-Ab binding signal (human Sdc2 [3])	raw competing-Ab binding signal (human Sdc2 [4])	raw competing-Ab binding signal (human Sdc2 [5])	raw competing-Ab binding signal (human Sdc2 [7])	raw competing-Ab binding signal (human Sdc2 [8])	raw competing-Ab binding signal (human Sdc2 [9])	raw competing-Ab binding signal (human Sdc2 [10])	raw competing-Ab binding signal (human Sdc2 [11])	raw competing-Ab binding signal (human Sdc2 [14])	raw competing-Ab binding signal (human Sdc2 [15])	raw competing-Ab binding signal (human Sdc2 [16])	raw competing-Ab binding signal (human Sdc2 [17])	raw competing-Ab binding signal (human Sdc2 [18])	% Inhibition of VEGFA-induced permeability at 24hrs (20ug/ml) [21] [%]	Kd (human Sdc2 [22]) [nM]	raw competing-Ab binding signal (human Sdc2 [23])	raw competing-Ab binding signal (human Sdc2 [24])	other results
B1	0.0503	0.214	0.192	0.173	0.161	0.158	0.0781	0.0763	-0.102	0.197	0.0503	-0.0179	0.0759	0.171	0.0082	90	0.37	-0.0355	-0.0618	Kd (pig Sdc2 [6]): < 0.001 nM; Kd (human Sdc2 [12]): ~0.37 nM; koff (pig Sdc2 [13]): < 1e-07 s⁻¹; kon (pig Sdc2 [13]): 70700 M⁻¹ s⁻¹; raw competing-Ab binding signal (human Sdc2 [19]): -0.0786; Kd (human Sdc2 [20]): 0.369 nM; koff (human Sdc2 [20]): 3.18e-05 s⁻¹; kon (human Sdc2 [20]): 86200 M⁻¹ s⁻¹
B2	0.113	0.871	0.891	0.858	0.827	0.954	0.784	0.777	0.636	0.83	0.241	0.761	0.805	0.79	0.0566	100	0.46	0.0574	0.776	Kd (human Sdc2 [25]): 0.466 nM; koff (human Sdc2 [25]): 0.000235 s⁻¹; kon (human Sdc2 [25]): 505000 M⁻¹ s⁻¹; Kd (human Sdc2 [26]): ~0.46 nM; Kd (pig Sdc2 [27]): ~0.45 nM; Kd (pig Sdc2 [28]): 0.455 nM; koff (pig Sdc2 [28]): 0.000195 s⁻¹; kon (pig Sdc2 [28]): 428000 M⁻¹ s⁻¹; raw competing-Ab binding signal (human Sdc2 [29]): 0.16
